In US20150307588A1:

Key:
[1] = target: hBMP-9 (human) (UniProt Q9UK05); test: SPR kinetics, captured CHO-cell-derived protein
[2] = target: hBMP-10 (human) (UniProt O95393); test: SPR kinetics, captured CHO-cell-derived protein
[3] = target: hBMP-9 (human) (UniProt Q9UK05); test: cell-based or functional assay
[4] = target: hBMP-10 (human) (UniProt O95393); test: cell-based or functional assay

Sequence of UniProt O95393 (O95393 317-424 limits assumed): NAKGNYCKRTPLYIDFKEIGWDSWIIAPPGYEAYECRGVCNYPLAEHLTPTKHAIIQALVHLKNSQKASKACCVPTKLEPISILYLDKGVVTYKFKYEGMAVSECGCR
Sequence of UniProt Q9UK05 (Q9UK05 320-429 limits assumed): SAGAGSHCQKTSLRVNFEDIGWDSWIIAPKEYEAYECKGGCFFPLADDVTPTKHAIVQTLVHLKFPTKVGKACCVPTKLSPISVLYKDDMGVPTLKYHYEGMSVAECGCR

Substance: hENG(26-586)-hFc, CHO-cell-derived, with N-terminally truncated Fc domain (Fc fusion)
- Kd [1]: 0.033 nM
- koff [1]: 0.0025 s⁻¹
- Kd [2]: 0.49 nM
- koff [2]: 0.011 s⁻¹
- IC50 (nM), BRE-luciferase reporter-gene assay in A204 cells [3]: 0.26 nM
- IC50 (nM), BRE-luciferase reporter-gene assay in A204 cells [4]: 7.9 nM
